Experimental data: article PMC2872106

Legend:
κI O18/O8 Y87H (human) [1] = experiment: NMR titration
κI O18/O8 Y87H (human) [2] = experiment: AUC

Kd (κI O18/O8 Y87H (human) [1]): 347 µM
Kd (κI O18/O8 Y87H (human) [2]): 420 µM
Substance: κI O18/O8 Y87H (domain or fragment)
